Laboratory results taken from the nanobody polyreactivity screen of Harvey et al. (2022).

Assay: yeast display, Sf9 membrane polyspecificity reagent, FACS + sequencing; frameworks hold sequencing errors
How it was run: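 Galactose induction of a Saccharomyces cerevisiae BJ5465 synthetic nanobody display library ran 36–48 hours. The cells were then stained for 1 hour at 4 °C with 10% biotinylated, detergent-solubilized Sf9 membrane reagent, pulled down on streptavidin microbeads and FACS-sorted into low and high (top ~1%) gates on expression and reagent-binding fluorescence. Labels for polyreactivity follow the gate of origin.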

| Sequence | polyreactivity (PSR sort gate) |
| --- | --- |
| QVQLVESGGGLVQAGGSLRLSCAASGIIFKSYAMGWSRQAPGKERELVAAITKRGGSTYYADSVKGRFTISRDNAKNTVYLQMNSLKPEDTAVYYCAADDGVGNTDDYWGQGTQVTVSS | high polyreactivity |
| QDKLVESGGALVQAGGSLRISCAASGNIFSYYAMGWNRQAPGKEMDLVAAISRRGTNTYYADSVKGRFTISRDKAKNTVYLQMNSLKPEDTAVYYCASYGPYQSSYHYDYWGQGTQVTVSS | high polyreactivity |
| QVQLVESGGRLVQAGGSLRLSCAASGRTFRSYAMGWYRPAPGKEWELVAAIRTSDGITYYADSVKGRFTISRDNAKNTVDLQMNSLQPEDTAVYYCAAENWYKYDYWGQGTQVTVSS | low polyreactivity |
| QVQLVESGGGLVQAGGSLRLSCAASGFTIRLYAMGWYRQAPGKERELVAAITSGGSTYADSVKGRFTISRDNAKNTVYLQMNSLKPEDTAVYYCNAEALVNGGYDYWGQGTQVTVSS | high polyreactivity |
| QVQLVESGGGLVQAGGSLRLSCAASGSTFSHYAMGWYRQAPGKERELVATITYSGGSTYYADSVKGRFTISRDNAKNTVYLQMNSMKPEDTAVYYCAARPRFITYKRYYWGQGTQVTVSS | high polyreactivity |
| QVQLVESGGGLVQAGGSLRLSCAASGSTFRTYAMGWYRQAPGKERELVAVISASGGSTYYADSVKGRFTISRDNAKNTVYLQMNSLKPEDTAVYYCAVAYSRGRYYYWGQGTQVTVSS | high polyreactivity |
| QVQLVESGGGLVQAGGSLRLSCAASGRTFYYYAMGWYRQAPGKERELVAAISWSGGRTYYADSVKGRFTISRDNAKNTVYLQMNSLKPEDTAVYYCAASSTGYGGSTYYYWGQGTQVTVSS | low polyreactivity |
| QVQLVESGGGLVQAGGSLRLSCAASGIIFPSYAMGWYRQAPGKERELVAAINSSGGSTYYADSVKGRFTISRDNAKNTVYLQMNSLKPEDTAVYYCAAEADLQWYPYSFPYPYYYWGQGTQVTVSS | high polyreactivity |
| QVQLVESGGSLLQAGCSLRLSCAASGFIIAWYAMGWSRQAPGKEWELVAAISLSGGSTRYADSVKGRFTISRDNAKNPVYLQMNCLKPEDTAVYYCNVDRWASTEYDYWGQGTQVTVSS | low polyreactivity |
| QVQLVESGGGLVQAGGSLRLSCAATGSIFSYYDMAWYRQAPGNERELVAGISRGGSTNYADSVKGRFTISRDNGKNTVYLQMNSLKEEDTAVYYCNADQSSRTYPFRRSRRSWLYGYWGQGTQVTVSS | low polyreactivity |
| QVQLVESRGGLVQAGGSLRLSCAASGYIFGYTVMGWYRQAPGTERELVATITRGGDTNYADSVKGGFTISRDNAKNTVYLQMNSLKPEDSSVYYCAAEPVAYYGSSYGYWGQGTQVTVSS | low polyreactivity |
| QVQLVESGGGLVQAGGSLRLSCAASGFTLKQYAMGWYRQAPGKERELVAAIRWSGGSTNYADSVKGRFTISRDNAKNTVYLQMNSLKPEDTAVYYCAADFRTPYFGIRYGYWGQGTQVTVSS | high polyreactivity |
| QVQLVESGGGLVQAGCSLRLSCAASGRIFVKYTMGWYRQAPGKERELVAAIDFDTDSKYYADSVKGRFTFSRDNAKNTVYFQMNSLNPEDTAVYYCAADSYYYGYQGQTQYGWVWYDYWGQVTQVTVSS | low polyreactivity |
| QVQLVESGGGLVQAGGSLRLSCAASGRIFYSYAMGWYRQAPGKERELVATISRRGGSTYYADSVKGRFTISRDNAKITVYLQMNSLKPEDTAVYYCNKGIPTRSVRSYDYWGQGTQVTVSS | high polyreactivity |
| QVQLVESGGGLVQAGGSLRLSCSASGYIYQYNSMGWYRQAPGKERELVAANSRGGRTNYADSVKGRFTISRDNAKNTVYLQMNSLKPEDTEVYYCAAKRPWGYYPWSTQTGDYWGQGTQVTVSS | high polyreactivity |
| QVQLVESGGCLVQARGSLRLSCAASGSTFTYNTMGWYRQAPGKESELVAGITKSGGSTYYADSVKGRFTISRDKAKNTVYLQMNSLKPEDTAVYYCATSTSRRYGSRHNYWGQGTQVTVSS | high polyreactivity |

| Sequence | polyreactivity (PSR sort gate) |
| --- | --- |
| QVQVVESGGGFVQAGGSLSLSCAASGSTFPYYVMGCYREAPGKERELVAAISGSGTRTYYADSVKGRFTISRDNAKNTVYLQMNSLKPEDTAVYYCAARKYPQGFDYWGQGTQVTVSS | low polyreactivity |
| QVQLEESGGGLVQAGGSLRLSCAASGSIFFFYAMGWYRQAPGKERELVAAISSDGSTKYADSVKGRFTISRDNAKNTVYLQMNILKPEDTAVYYCNADKWSVVGYVLGFYRDDYWGQGTQVTVSS | low polyreactivity |
| QVQLVESGGVLVQAGGRLRLSCAASGLTFYLYAMGWYRQAPGKQREFVAAISRSGTSTYYADSVKGRFTISRDYAKNTVNLQKNSLKPDDTAVYYCAALNYHKFAHKYDYWGQGTPVTVSS | low polyreactivity |
| QVQLVESGGGLVQAGGSLRLSCAASGSTFRYYAMGWYRQAPGKERELVAAITQSGGITYYADSVKGRFTISRDNAKNTVYLQMNSLKPEDTAVYYCAKRYYVDYDYWGQGTQVTVSS | low polyreactivity |
| QVQLVESGGGLVQAGGSLRLSCAASGRIFYPYAMGGYRQAAGKEREFVAAISSGVSTNYADSVTGRFTISRDNATTTVYLQMNSLKPEDTAVYYCARSYFRYASSYYQAVSHGYSGQGTQVTVSS | high polyreactivity |
| QDQLVESGGGLVQAGGSLRLSCAASGFTIDPYAMGWYRPAPGKERELVAGISWSGGSTYYADSVKGRFTISRDNAKNTVYLQMNSLKPEVTAVYYCARDYSWLTRGSDYDYWGQGTQVTVSS | low polyreactivity |
| QVQLVESGGGLVQAGGSLRLSCAASGYTFHGYAMGWYRQAPGKERELVAVITQRGGSTSYADSVKGRFTISRDNAKNTVYLQMNSLKPEDTAVYYCNADGPSTPWVDYGYWGQGTQVTVSS | low polyreactivity |
| QDQLVESGGGLVQAGGSLRLSCAASGRIFSIYAMGWYRQAPGKERELVAAITRGGRTIYADSVKGRFTISRDNAKNTVYLQMNSLKPEDTAVYYCAARRIDGVVKPYDYWGQGTQVTVSS | low polyreactivity |
| QDHLVESGGGLVQAGGSLRLSCAASGSIFGLYAMGWYRQSPGKERELVAAISFSGDTYYADSVKGRFTISRDNAKNTVYLQMNSLKPEDTAVYYCAAEDWYEYDYWGQGTQVTVSS | high polyreactivity |
| QVQLVESGGGLVQAGGSLRLSCAASGSTYFHYAMGWYRQAPGKERELVAAISKSVGTTYYADSVKGRFTISRDNAKNTVYLQMNSLKPEDPAVYYCAADSVITWWAYDYWGQGTQVTVSS | high polyreactivity |
| QVQLVESGGGLVQAGGSLRLSCASSGFTFARYAMGWYRPAPGKEREFVAAIDKSGGSTYYADSVTGRFTISRDNAKNTVYLQMNSLKPEDTAVYYCAAGFGRVFSSIYGYWGQGTQVTVSS | high polyreactivity |
| QVQLVESGGGLVQAGGSLRLSCAASGSTFVKYAMGWYRQAPGKERELVAAIDSSGGSTYYADSVKGRFTISRDNAKNTVYLQMNSLKAEDTAVYYCAAPRGNRLKGLEGYYWGQGTQVTVSS | high polyreactivity |
| QVQLVESGGGLVQAGGSLRLSCAASGRIFKFNTMGWYRQAPGKERELVAVITLSGGRTFYADSVKGRFTISRDNAKNTVYLQMNSLKPEDTAVYYCAKDFEGYEGGLSRDDYWGQGTQVTVSS | low polyreactivity |
| QVQLVESGGGLVQAGGSLRLSCAASGSIFQYYLIGWYRKAPGKERELVAAIRRSGTTYYADSVKGRFTISRDNAKNTVYLQMNSLKPEDTAVYYCNKVRGQEQSNYDYWGQGTQVTVSS | low polyreactivity |
| QVQLVESGGGLVQAGGSLRLSCAASGFTFRRYAMGWYRQAPGKERELVASIASSTGGSTYADSVKGRFTISRDNAKNTVYLQMNSLKPEDTAVYSCAADWSRFYLGHRTGSGYEYWGQGTQVTVSS | low polyreactivity |
